From publication PMC9485244

Legend:
[1] = biological target: TatB^mNeon (E. coli TatB C-terminally tagged with mNeonGreen) (E. coli) (UniProt P69425); assay: single-molecule photobleaching step counting; individual CellMask-positive IMVs adsorbed on plasma-cleaned coverslips, narrow-field epifluorescence (488 nm), 50 mM Tris-HCl, 150 mM NaCl, pH 7.5; step histograms (manual and PDD) fit to oligomer models (monomer to octamer) with Poisson distribution of complexes in IMVs and binomial fluorescence detection efficiency; copies per Tat receptor complex
[2] = biological target: TatC^mNeon (E. coli TatC C-terminally tagged with mNeonGreen) (E. coli) (UniProt P69423); assay: as above

## TatB^mNeon (E. coli TatB C-terminally tagged with mNeonGreen) (from UniProt P69425 1-171) (natural protein)
[1]
  stoichiometry N (copies per receptor complex): 4

## TatC^mNeon (E. coli TatC C-terminally tagged with mNeonGreen) (from UniProt P69423 1-258) (natural protein)
[2]
  stoichiometry N (copies per receptor complex): 4
